Data published in IntAct's records for PubMed 31515488.

B1: Keratin-associated protein 5-9 (Homo sapiens), P26371 (parent)
chain: MGCCGCSGGCGSSCGGCDSSCGSCGSGCRGCGPSCCAPVYCCKPVCCCVPACSCSSCGKRGCGSCGGSKGGCGSCGCSQCSCCKPCCCSSGCGSSCCQCSCCKPYCSQCSCCKPCCSSSGRGSSCCQSSCCKPCCSSSGCGSSCCQSSCCKPCCSQSRCCVPVCYQCKI
partner: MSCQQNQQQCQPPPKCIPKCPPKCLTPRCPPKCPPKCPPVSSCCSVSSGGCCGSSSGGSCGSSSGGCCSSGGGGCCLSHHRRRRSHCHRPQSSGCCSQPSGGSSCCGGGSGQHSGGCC
B2: Nuclear protein AMMECR1 (Homo sapiens), Q9Y4X0 (parent)
chain: MAAGCCGVKKQKLSSSPPSGSGGGGGASSSSHCSGESQCRAGELGLGGAGTRLNGLGGLTGGGSGSGCTLSPPQGCGGGGGGIALSPPPSCGVGTLLSTPAAATSSSPSSSSAASSSSPGSRKMVVSAEMCCFCFDVLYCHLYGYQQPRTPRFTNEPYPLFVTWKIGRDKRLRGCIGTFSAMNLHSGLREYTLTSALKDSRFPPMTRDELPRLFCSVSLLTNFEDVCDYLDWEVGVHGIRIEFINEKGSKRTATYLPEVAKEQGWDHIQTIDSLLRKGGYKAPITNEFRKTIKLTRYRSEKMTLSYAEYLAHRQHHHFQNGIGHPLPPYNHYS
B3: PiggyBac transposable element-derived protein 1 (Homo sapiens), Q96JS3 (parent)
chain: MYEALPGPAPENEDGLVKVKEEDPTWEQVCNSQEGSSHTQEICRLRFRHFCYQEAHGPQEALAQLRELCHQWLRPEMHTKEQIMELLVLEQFLTILPKELQPCVKTYPLESGEEAVTVLENLETGSGDTGQQASVYIQGQDMHPMVAEYQGVSLECQSLQLLPGITTLKCEPPQRPQGNPQEVSGPVPHGSAHLQEKNPRDKAVVPVFNPVRSQTLVKTEEETAQAVAAEKWSHLSLTRRNLCGNSAQETVMSLSPMTEEIVTKDRLFKAKQETSEEMEQSGEASGKPNRECAPQIPCSTPIATERTVAHLNTLKDRHPGDLWARMHISSLEYAAGDITRKGRKKDKARVSELLQGLSFSGDSDVEKDNEPEIQPAQKKLKVSCFPEKSWTKRDIKPNFPSWSALDSGLLNLKSEKLNPVELFELFFDDETFNLIVNETNNYASQKNVSLEVTVQEMRCVFGVLLLSGFMRHPRREMYWEVSDTDQNLVRDAIRRDRFELIFSNLHFADNGHLDQKDKFTKLRPLIKQMNKNFLLYAPLEEYYCFDKSMCECFDSDQFLNGKPIRIGYKIWCGTTTQGYLVWFEPYQEESTMKVDEDPDLGLGGNLVMNFADVLLERGQYPYHLCFDSFFTSVKLLSALKKKGVRATGTIRENRTEKCPLMNVEHMKKMKRGYFDFRIEENNEIILCRWYGDGIISLCSNAVGIEPVNEVSCCDADNEEIPQISQPSIVKVYDECKEGVAKMDQIISKYRVRIRSKKWYSILVSYMIDVAMNNAWQLHRACNPGASLDPLDFRRFVAHFYLEHNAHLSD
B4: Centrosomal protein of 55 kDa (Homo sapiens), Q53EZ4 (parent)
chain: MSSRSTKDLIKSKWGSKPSNSKSETTLEKLKGEIAHLKTSVDEITSGKGKLTDKERHRLLEKIRVLEAEKEKNAYQLTEKDKEIQRLRDQLKARYSTTTLLEQLEETTREGERREQVLKALSEEKDVLKQQLSAATSRIAELESKTNTLRLSQTVAPNCFNSSINNIHEMEIQLKDALEKNQQWLVYDQQREVYVKGLLAKIFELEKKTETAAHSLPQQTKKPESEGYLQEEKQKCYNDLLASAKKDLEVERQTITQLSFELSEFRRKYEETQKEVHNLNQLLYSQRRADVQHLEDDRHKTEKIQKLREENDIARGKLEEEKKRSEELLSQVQFLYTSLLKQQEEQTRVALLEQQMQACTLDFENEKLDRQHVQHQLHVILKELRKARNQITQLESLKQLHEFAITEPLVTFQGETENREKVAASPKSPTAALNESLVECPKCNIQYPATEHRDLLVHVEYCSK
partner: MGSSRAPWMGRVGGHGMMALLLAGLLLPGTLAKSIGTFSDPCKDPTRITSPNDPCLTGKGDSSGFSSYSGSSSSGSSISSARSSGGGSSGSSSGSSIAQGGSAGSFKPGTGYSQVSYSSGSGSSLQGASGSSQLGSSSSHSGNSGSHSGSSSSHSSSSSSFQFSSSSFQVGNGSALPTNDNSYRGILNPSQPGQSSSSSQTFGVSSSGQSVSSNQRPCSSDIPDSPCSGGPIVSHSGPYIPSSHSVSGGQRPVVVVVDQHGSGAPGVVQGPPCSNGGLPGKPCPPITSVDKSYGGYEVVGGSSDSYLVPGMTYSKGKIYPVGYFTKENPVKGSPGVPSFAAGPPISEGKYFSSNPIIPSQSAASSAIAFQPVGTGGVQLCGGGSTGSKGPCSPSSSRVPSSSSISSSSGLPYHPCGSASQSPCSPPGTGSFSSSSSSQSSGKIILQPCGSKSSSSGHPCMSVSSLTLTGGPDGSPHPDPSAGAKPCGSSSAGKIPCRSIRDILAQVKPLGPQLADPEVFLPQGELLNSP
B5: Rho guanine nucleotide exchange factor 39 (Homo sapiens), Q8N4T4 (parent)
chain: MELSCPGSRCPVQEQRARWERKRACTARELLETERRYQEQLGLVATYFLGILKAKGTLRPPERQALFGSWELIYGASQELLPYLEGGCWGQGLEGFCRHLELYNQFAANSERSQTTLQEQLKKNKGFRRFVRLQEGRPEFGGLQLQDLLPLPLQRLQQYENLVVALAENTGPNSPDHQQLTRAARLISETAQRVHTIGQKQKNDQHLRRVQALLSGRQAKGLTSGRWFLRQGWLLVVPPHGEPRPRMFFLFTDVLLMAKPRPPLHLLRSGTFACKALYPMAQCHLSRVFGHSGGPCGGLLSLSFPHEKLLLMSTDQEELSRWYHSLTWAISSQKN
partner: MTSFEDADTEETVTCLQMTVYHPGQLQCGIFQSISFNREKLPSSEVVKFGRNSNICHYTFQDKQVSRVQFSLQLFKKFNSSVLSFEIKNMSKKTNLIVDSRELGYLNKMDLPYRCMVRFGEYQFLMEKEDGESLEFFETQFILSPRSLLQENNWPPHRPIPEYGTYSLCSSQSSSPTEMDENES

Variants of: B1
Conditions: with lce1b_human LCE1B

Variant	effect of a mutation on the interaction
Y40C	with no effect

Variants of: B2
Conditions: with rbpms_human RBPMS

Variant	effect of a mutation on the interaction
R207G	with no effect

Variants of: B3
Conditions: with traf2_human TRAF2, Q12933
Sequence of traf2_human TRAF2, Q12933 (Q12933 whole entry): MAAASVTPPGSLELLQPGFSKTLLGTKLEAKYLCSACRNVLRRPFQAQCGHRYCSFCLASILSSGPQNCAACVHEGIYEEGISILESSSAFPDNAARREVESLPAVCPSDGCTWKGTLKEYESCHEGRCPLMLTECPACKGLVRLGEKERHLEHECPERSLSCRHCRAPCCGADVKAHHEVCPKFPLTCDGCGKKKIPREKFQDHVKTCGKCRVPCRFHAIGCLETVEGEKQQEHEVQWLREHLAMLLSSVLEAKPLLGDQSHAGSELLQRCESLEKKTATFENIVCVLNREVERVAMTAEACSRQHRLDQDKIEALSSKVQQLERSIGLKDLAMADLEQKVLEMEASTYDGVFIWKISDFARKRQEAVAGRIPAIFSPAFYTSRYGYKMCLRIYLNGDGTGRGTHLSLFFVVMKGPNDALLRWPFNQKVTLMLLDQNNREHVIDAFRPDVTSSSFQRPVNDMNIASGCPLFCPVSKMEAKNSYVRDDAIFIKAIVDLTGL

Variant	effect of a mutation on the interaction
I678V	with no effect
P256L	with no effect
Q248E	disrupting interaction strength
G244E	disrupting interaction strength
N398S	with no effect

Variants of: B3
Conditions: with zsc22_human ZSCAN22, P10073
Sequence of zsc22_human ZSCAN22, P10073 (P10073 whole entry): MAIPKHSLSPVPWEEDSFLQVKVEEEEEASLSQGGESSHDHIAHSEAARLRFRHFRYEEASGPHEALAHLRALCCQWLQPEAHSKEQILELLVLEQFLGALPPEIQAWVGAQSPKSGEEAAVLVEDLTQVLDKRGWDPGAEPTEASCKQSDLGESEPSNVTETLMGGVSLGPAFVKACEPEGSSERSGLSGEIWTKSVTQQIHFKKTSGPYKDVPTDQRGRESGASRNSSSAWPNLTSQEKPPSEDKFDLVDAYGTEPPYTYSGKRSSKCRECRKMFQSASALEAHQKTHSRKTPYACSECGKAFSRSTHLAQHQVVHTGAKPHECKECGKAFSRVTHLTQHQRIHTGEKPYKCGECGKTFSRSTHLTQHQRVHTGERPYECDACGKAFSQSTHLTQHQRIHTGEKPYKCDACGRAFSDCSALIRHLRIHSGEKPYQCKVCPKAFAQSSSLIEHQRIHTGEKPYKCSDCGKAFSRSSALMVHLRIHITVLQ

Variant	effect of a mutation on the interaction
I678V	with no effect
P256L	disrupting interaction strength
Q248E	with no effect
G244E	with no effect
N398S	with no effect

Variants of: B3
Conditions: with zn446_human ZNF446, Q9NWS9
Sequence of zn446_human ZNF446, Q9NWS9 (Q9NWS9 whole entry): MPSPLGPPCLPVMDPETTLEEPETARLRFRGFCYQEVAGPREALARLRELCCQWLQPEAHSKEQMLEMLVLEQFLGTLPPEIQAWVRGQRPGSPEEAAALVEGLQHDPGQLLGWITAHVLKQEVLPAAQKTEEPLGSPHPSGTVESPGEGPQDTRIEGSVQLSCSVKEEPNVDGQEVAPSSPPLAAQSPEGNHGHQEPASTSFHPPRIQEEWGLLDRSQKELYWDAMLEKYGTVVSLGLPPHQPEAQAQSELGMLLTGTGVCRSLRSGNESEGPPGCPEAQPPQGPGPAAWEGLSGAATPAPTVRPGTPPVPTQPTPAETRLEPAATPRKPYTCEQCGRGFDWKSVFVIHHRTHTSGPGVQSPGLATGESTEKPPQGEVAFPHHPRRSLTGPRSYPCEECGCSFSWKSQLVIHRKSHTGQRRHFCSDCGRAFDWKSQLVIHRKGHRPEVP

Variant	effect of a mutation on the interaction
I678V	with no effect
P256L	disrupting interaction strength
Q248E	with no effect
G244E	with no effect
N398S	with no effect

Variants of: B3
Conditions: with znf24_human ZNF24, P17028
Sequence of znf24_human ZNF24, P17028 (P17028 whole entry): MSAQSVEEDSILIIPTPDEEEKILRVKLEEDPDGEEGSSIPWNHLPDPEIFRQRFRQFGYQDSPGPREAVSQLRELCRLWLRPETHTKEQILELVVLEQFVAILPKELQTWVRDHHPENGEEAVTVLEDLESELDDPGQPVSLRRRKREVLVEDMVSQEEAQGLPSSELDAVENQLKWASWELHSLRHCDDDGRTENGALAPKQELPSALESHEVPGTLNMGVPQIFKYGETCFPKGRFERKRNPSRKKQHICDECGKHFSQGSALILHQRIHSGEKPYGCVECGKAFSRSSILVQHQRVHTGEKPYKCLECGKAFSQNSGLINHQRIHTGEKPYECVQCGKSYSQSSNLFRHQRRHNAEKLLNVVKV

Variant	effect of a mutation on the interaction
I678V	with no effect
T25A	with no effect

Variants of: B4
Conditions: with cdsn_human CDSN

Variant	effect of a mutation on the interaction
H57Q	with no effect
C236R	with no effect
A244P	with no effect
R348K	with no effect

Variants of: B5
Conditions: with tifa_human TIFA

Variant	effect of a mutation on the interaction
D204N	with no effect
